1 molecule from patent publication US20250197486A1 (Novartis, published 2025) can be followed below.

Usually Kd stands for the constant that tells how readily two partners part at equilibrium. As a reminder, the koff is the first-order rate constant of dissociation. What is called kon is the rate constant with which the complex forms.

This experiment deals with T1, human VEGF165 (human, UniProt P15692 27-191).
T1 construct: mature; The canonical UniProt entry is a longer isoform, so the VEGF165 isoform must be chosen; also called recombinant VEGF165 protein; VEGF-A
T1 sequence (P15692 other isoform, or with tags, fused parts or gaps): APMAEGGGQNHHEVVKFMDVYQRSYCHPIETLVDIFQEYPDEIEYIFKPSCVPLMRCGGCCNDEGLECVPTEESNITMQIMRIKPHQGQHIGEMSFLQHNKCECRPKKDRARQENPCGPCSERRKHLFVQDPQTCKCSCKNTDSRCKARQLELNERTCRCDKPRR
Description: SPR, in vitro, recombinant VEGF165, 37 °C. Here is the method:
The brolucizumab: VEGF binding parameter values (Table 8) were defined on the basis of a surface plasmon resonance (SPR) in vitro binding experiment with drug and recombinant VEGF165 protein at 37° C. These in vitro measured brolucizumab: VEGF binding parameter values were then scaled similar to ranibizumab to obtain in vivo estimates. […] The scaling is performed such that the koff is kept constant and the kon is divided by the scaling factor.

B1: brolucizumab (scFv)
scFv: MEIVMTQSPSTLSASVGDRVIITCQASEIIHSWLAWYQQKPGKAPKLLIYLASTLASGVPSRFSGSGSGAEFTLTISSLQPDDFATYYCQNVYLASTNGANFGQGTKLTVLGGGGGSGGGGSGGGGSGGGGSEVQLVESGGGLVQPGGSLRLSCTASGFSLTDYYYMTWVRQAPGKGLEWVGFIDPDDDPYYATWAKGRFTISRDNSKNTLYLQMNSLRAEDTAVYYCAGGDHNSGWGLDIWGQGTLVTVSS
notes: Humanized scFv of about 26 kDa, VL-linker-VH; also called Beovu; drug
On to B1, for which the Kd came to 0.101 nM, the koff was 0.00025 s⁻¹ and the kon stood at 2.5e+06 M⁻¹ s⁻¹.
